T1: human CXCR3 (human, UniProt P49682 1-368)
T1 construct: whole, on cells; in FACS and chemotaxis on whole transfected HEK or L1.2 cells; also called GPR9
T1 sequence (looked up): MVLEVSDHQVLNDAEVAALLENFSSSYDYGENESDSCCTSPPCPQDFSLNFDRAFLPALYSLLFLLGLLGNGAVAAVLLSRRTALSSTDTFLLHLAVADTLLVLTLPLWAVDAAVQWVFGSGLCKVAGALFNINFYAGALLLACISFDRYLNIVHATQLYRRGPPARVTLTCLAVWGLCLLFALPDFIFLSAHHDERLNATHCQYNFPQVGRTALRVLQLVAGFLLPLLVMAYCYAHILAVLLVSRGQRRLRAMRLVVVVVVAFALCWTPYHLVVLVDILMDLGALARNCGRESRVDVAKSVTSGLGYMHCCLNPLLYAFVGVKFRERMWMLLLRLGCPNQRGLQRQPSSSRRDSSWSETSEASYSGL


Assays:
human CXCR3 [1] = biological target: T1, human CXCR3; experiment: equilibrium competition receptor binding, SPA, [125I]-CXCL11 tracer, membranes of CXCR3-expressing HEK cells
Experimental: The assays were carried out on membranes from HEK cells stably expressing CXCR3 using a Scintillation Proximity Assay (SPA), with [¹²⁵I]-CXCL11 as tracer. Radiolabelled CXCL11 (recombinant human I-TAC; Peprotech) was generated and tested according to the [¹²⁵I] supplier (Amersham; specific activity of […]), also to check for CXCR3-expressing HEK and L1.2 clones positively stained during FACS analysis.
Competitors were prepared by serial dilutions (range from 10⁻⁶ to 10⁻¹² M) of the unlabelled CXCL11, or one of its mutant, in the binding buffer (50 mM HEPES pH 7.2, 1 mM CaCl₂, 5 mM MgCl₂, 0.15 M NaCl and 0.5% Bovine Serum Albumin). Wheat germ SPA beads (Amersham) were solubilised in PBS to 50 mg/ml, and diluted in the binding buffer to a 10 mg/ml, and the final concentration in the assay was 0.25 mg/well. Cell membranes expressing CXCR3 were stored at −80° C. and diluted in the binding buffer to 20 μg/ml. Equal volumes of membrane and beads stocks were mixed before performing the assay to reduce background. The final membrane concentration was 5 μg/well and that of [¹²⁵I]-CXCL11 was 0.05 nM. The plates were incubated at room temperature with agitation for 4 hours. Radioactivity was counted (1 minute/well) in a beta counter. Data from triplicate samples were analysed using Prism® software (GraphPad).
Finally, an equilibrium competition receptor-binding assay was performed to compare the properties of the muteins on the binding of the specific receptor CXCR3 (FIG. 3). Samples containing a constant amount of radiolabelled, commercial CXCL11 were mixed with serial dilutions of CXCL11-WT, or of one of the muteins, and then incubated with membranes prepared from CXCR3-expressing HEK cells. […] Therefore, the affinity for the receptor is substantially retained in heparin-binding defective CXCL11-WT carboxyl-terminal mutants, whilst the mutations in amino-terminus affect specifically receptor binding, a feature which appears as clearly distinct.

human CXCR3 [2] = biological target: T1, human CXCR3; experiment: radioligand equilibrium binding on CXCR3-transfected HEK and L1.2 clones

| Binder | reduction in the affinity for CXCR3 against CXCL11-WT (human CXCR3 [1]) | other results |
| --- | --- | --- |
| mature human CXCL11 (CXCL11-WT) (ligand, 73 residues with no additional residues; also called hCXCL11; I-TAC) FPMFKRGRCLCIGPGVKAVKVADIEKASIMYPSNNCDKIEVIITLKENKGQRCLNPKSKQARLIIKKVERKNF | – | binding result (human CXCR3 [1]): binds |
| [125I]-CXCL11 (radiolabelled recombinant human I-TAC; Peprotech) (ligand, UniProt O14625 22-94, looked up, [125I] label, site not stated, Commercial protein; also called Radiolabelled CXCL11; radiolabelled, commercial CXCL11) FPMFKRGRCLCIGPGVKAVKVADIEKASIMYPSNNCDKIEVIITLKENKGQRCLNPKSKQARLIIKKVERKNF | – | binding result (human CXCR3 [2]): binds |
| CXCL11-4B4 (ligand, Mutein of mature human CXCL11; E. coli, leader cleaved with caspase 8; also called CXCLII-4B4) FPMFKRGRCLCIGPGVKAVKVADIEKASIMYPSNNCDKIEVIITLKENKGQRCLNPKSKQARLIIAAVEAANF | ≤ 1 order of magnitude | – |
| CXCL11-2B3 (ligand, Mutein of mature human CXCL11; E. coli, leader cleaved with caspase 8; also called CXCLII-2B3) FPMFKRGRCLCIGPGVKAVKVADIEKASIMYPSNNCDKIEVIITLAENAGQACLNPKSKQARLIIKKVERKNF | ≤ 1 order of magnitude | – |
| CXCL11-3B3 (ligand, Mutein of mature human CXCL11; E. coli, leader cleaved with caspase 8; also called CXCLII-3B3) FPMFKRGRCLCIGPGVKAVKVADIEKASIMYPSNNCDKIEVIITLKENKGQRCLNPASAQAALIIKKVERKNF | ≤ 1 order of magnitude | – |

Source: US20060204498A1 (MERCK SERONO, published 2006)
